Test results published in publication PMC8298264, “Function of cofactor Akirin2 in the regulation of gene expression in model human neutrophil-like HL60 cells” (Bioscience Reports, 2021).

B1: sp¦Q9BTE7¦DCNL5_HUMAN (protein, UniProt Q9BTE7 1-237, looked up)
DCN1-like protein 5: MPVKKKRKSPGVAAAVAEDGGLKKCKISSYCRSQPPARLISGEEHFSSKKCLAWFYEYAGPDEVVGPEGMEKFCEDIGVEPENIIMLVLAWKLEAESMGFFTKEEWLKGMTSLQCDCTEKLQNKFDFLRSQLNDISSFKNIYRYAFDFARDKDQRSLDIDTAKSMLALLLGRTWPLFSVFYQYLEQSKYRVMNKDQWYNVLEFSRTVHADLSNYDEDGAWPVLLDEFVEWQKVRQTS
B2: sp¦O94874¦UFL1_HUMAN (protein, UniProt O94874 2-794, looked up)
E3 UFM1-protein ligase 1: ADAWEEIRRLAADFQRAQFAEATQRLSERNCIEIVNKLIAQKQLEVVHTLDGKEYITPAQISKEMRDELHVRGGRVNIVDLQQVINVDLIHIENRIGDIIKSEKHVQLVLGQLIDENYLDRLAEEVNDKLQESGQVTISELCKTYDLPGNFLTQALTQRLGRIISGHIDLDNRGVIFTEAFVARHKARIRGLFSAITRPTAVNSLISKYGFQEQLLYSVLEELVNSGRLRGTVVGGRQDKAVFVPDIYSRTQSTWVDSFFRQNGYLEFDALSRLGIPDAVSYIKKRYKTTQLLFLKAACVGQGLVDQVEASVEEAISSGTWVDIAPLLPTSLSVEDAAILLQQVMRAFSKQASTVVFSDTVVVSEKFINDCTELFRELMHQKAEKEMKNNPVHLITEEDLKQISTLESVSTSKKDKKDERRRKATEGSGSMRGGGGGNAREYKIKKVKKKGRKDDDSDDESQSSHTGKKKPEISFMFQDEIEDFLRKHIQDAPEEFISELAEYLIKPLNKTYLEVVRSVFMSSTTSASGTGRKRTIKDLQEEVSNLYNNIRLFEKGMKFFADDTQAALTKHLLKSVCTDITNLIFNFLASDLMMAVDDPAAITSEIRKKILSKLSEETKVALTKLHNSLNEKSIEDFISCLDSAAEACDIMVKRGDKKRERQILFQHRQALAEQLKVTEDPALILHLTSVLLFQFSTHSMLHAPGRCVPQIIAFLNSKIPEDQHALLVKYQGLVVKQLVSQSKKTGQGDYPLNNELDKEQEDVASTTRKELQELSSSIKDLVLKSRKSSVTEE
B3: sp¦Q15006¦EMC2_HUMAN (protein, UniProt Q15006 2-297, looked up)
ER membrane protein complex …: AKVSELYDVTWEEMRDKMRKWREENSRNSEQIVEVGEELINEYASKLGDDIWIIYEQVMIAALDYGRDDLALFCLQELRRQFPGSHRVKRLTGMRFEAMERYDDAIQLYDRILQEDPTNTAARKRKIAIRKAQGKNVEAIRELNEYLEQFVGDQEAWHELAELYINEHDYAKAAFCLEELMMTNPHNHLYCQQYAEVKYTQGGLENLELSRKYFAQALKLNNRNMRALFGLYMSASHIASNPKASAKTKKDNMKYASWAASQINRAYQFAGRSKKETKYSLKAVEDMLETLQITQS
B4: sp¦P50570¦DYN2_HUMAN (protein, UniProt P50570 1-870, looked up)
Dynamin-2: MGNRGMEELIPLVNKLQDAFSSIGQSCHLDLPQIAVVGGQSAGKSSVLENFVGRDFLPRGSGIVTRRPLILQLIFSKTEHAEFLHCKSKKFTDFDEVRQEIEAETDRVTGTNKGISPVPINLRVYSPHVLNLTLIDLPGITKVPVGDQPPDIEYQIKDMILQFISRESSLILAVTPANMDLANSDALKLAKEVDPQGLRTIGVITKLDLMDEGTDARDVLENKLLPLRRGYIGVVNRSQKDIEGKKDIRAALAAERKFFLSHPAYRHMADRMGTPHLQKTLNQQLTNHIRESLPALRSKLQSQLLSLEKEVEEYKNFRPDDPTRKTKALLQMVQQFGVDFEKRIEGSGDQVDTLELSGGARINRIFHERFPFELVKMEFDEKDLRREISYAIKNIHGVRTGLFTPDLAFEAIVKKQVVKLKEPCLKCVDLVIQELINTVRQCTSKLSSYPRLREETERIVTTYIREREGRTKDQILLLIDIEQSYINTNHEDFIGFANAQQRSTQLNKKRAIPNQGEILVIRRGWLTINNISLMKGGSKEYWFVLTAESLSWYKDEEEKEKKYMLPLDNLKIRDVEKGFMSNKHVFAIFNTEQRNVYKDLRQIELACDSQEDVDSWKASFLRAGVYPEKDQAENEDGAQENTFSMDPQLERQVETIRNLVDSYVAIINKSIRDLMPKTIMHLMINNTKAFIHHELLAYLYSSADQSSLMEESADQAQRRDDMLRMYHALKEALNIIGDISTSTVSTPVPPPVDDTWLQSASSHSPTPQRRPVSSIHPPGRPPAVRGPTPGPPLIPVPVGAAASFSAPPIPSRPGPQSVFANSDLFPAPPQIPSRPVRIPPGIPPGVPSRRPPAAPSRPTIIRPAEPSLLD
B5: sp¦Q96E11¦RRFM_HUMAN (protein, UniProt Q96E11 56-262, looked up)
Ribosome-recycling factor, …: ATKKAKAKGKGQSQTRVNINAALVEDIINLEEVNEEMKSVIEALKDNFNKTLNIRTSPGSLDKIAVVTADGKLALNQISQISMKSPQLILVNMASFPECTAAAIKAIRESGMNLNPEVEGTLIRVPIPQVTREHREMLVKLAKQNTNKAKDSLRKVRTNSMNKLKKSKDTVSEDTIRLIEKQISQMADDTVAELDRHLAVKTKELLG
B6: sp¦Q29RF7¦PDS5A_HUMAN (protein, UniProt Q29RF7 1-1337, looked up)
Sister chromatid cohesion …: MDFTAQPKPATALCGVVSADGKIAYPPGVKEITDKITTDEMIKRLKMVVKTFMDMDQDSEDEKQQYLPLALHLASEFFLRNPNKDVRLLVACCLADIFRIYAPEAPYTSHDKLKDIFLFITRQLKGLEDTKSPQFNRYFYLLENLAWVKSYNICFELEDCNEIFIQLFRTLFSVINNSHNKKVQMHMLDLMSSIIMEGDGVTQELLDSILINLIPAHKNLNKQSFDLAKVLLKRTVQTIEACIANFFNQVLVLGRSSVSDLSEHVFDLIQELFAIDPHLLLSVMPQLEFKLKSNDGEERLAVVRLLAKLFGSKDSDLATQNRPLWQCFLGRFNDIHVPVRLESVKFASHCLMNHPDLAKDLTEYLKVRSHDPEEAIRHDVIVTIITAAKRDLALVNDQLLGFVRERTLDKRWRVRKEAMMGLAQLYKKYCLHGEAGKEAAEKVSWIKDKLLHIYYQNSIDDKLLVEKIFAQYLVPHNLETEERMKCLYYLYASLDPNAVKALNEMWKCQNMLRSHVRELLDLHKQPTSEANCSAMFGKLMTIAKNLPDPGKAQDFVKKFNQVLGDDEKLRSQLELLISPTCSCKQADICVREIARKLANPKQPTNPFLEMVKFLLERIAPVHIDSEAISALVKLMNKSIEGTADDEEEGVSPDTAIRSGLELLKVLSFTHPTSFHSAETYESLLQCLRMEDDKVAEAAIQIFRNTGHKIETDLPQIRSTLIPILHQKAKRGTPHQAKQAVHCIHAIFTNKEVQLAQIFEPLSRSLNADVPEQLITPLVSLGHISMLAPDQFASPMKSVVANFIVKDLLMNDRSTGEKNGKLWSPDEEVSPEVLAKVQAIKLLVRWLLGMKNNQSKSANSTLRLLSAMLVSEGDLTEQKRISKSDMSRLRLAAGSAIMKLAQEPCYHEIITPEQFQLCALVINDECYQVRQIFAQKLHKALVKLLLPLEYMAIFALCAKDPVKERRAHARQCLLKNISIRREYIKQNPMATEKLLSLLPEYVVPYMIHLLAHDPDFTRSQDVDQLRDIKECLWFMLEVLMTKNENNSHAFMKKMAENIKLTRDAQSPDESKTNEKLYTVCDVALCVINSKSALCNADSPKDPVLPMKFFTQPEKDFCNDKSYISEETRVLLLTGKPKPAGVLGAVNKPLSATGRKPYVRSTGTETGSNINVNSELNPSTGNRSREQSSEAAETGVSENEENPVRIISVTPVKNIDPVKNKEINSDQATQGNISSDRGKKRTVTAAGAENIQQKTDEKVDESGPPAPSKPRRGRRPKSESQGNATKNDDLNKPINKGRKRAAVGQESPGGLEAGNAKAPKLQDLAKKAAPAERQIDLQR
B7: sp¦Q9BVI4¦NOC4L_HUMAN (protein, UniProt Q9BVI4 1-516, looked up)
Nucleolar complex protein 4 …: MEREPGAAGVRRALGRRLEAVLASRSEANAVFDILAVLQSEDQEEIQEAVRTCSRLFGALLERGELFVGQLPSEEMVMTGSQGATRKYKVWMRHRYHSCCNRLGELLGHPSFQVKELALSALLKFVQLEGAHPLEKSKWEGNYLFPRELFKLVVGGLLSPEEDQSLLLSQFREYLDYDDTRYHTMQAAVDAVARVTGQHPEVPPAFWNNAFTLLSAVSLPRREPTVSSFYVKRAELWDTWKVAHLKEHRRVFQAMWLSFLKHKLPLSLYKKVLLIVHDAILPQLAQPTLMIDFLTRACDLGGALSLLALNGLFILIHKHNLEYPDFYRKLYGLLDPSVFHVKYRARFFHLADLFLSSSHLPAYLVAAFAKRLARLALTAPPEALLMVLPFICNLLRRHPACRVLVHRPHGPELDADPYDPGEEDPAQSRALESSLWELQALQRHYHPEVSKAASVINQALSMPEVSIAPLLELTAYEIFERDLKKKGPEPVPLEFIPAQGLLGRPGELCAQHFTLS
B8: sp¦P63151¦2ABA_HUMAN (protein, UniProt P63151 2-447, looked up)
Serine/threonine-protein …: AGAGGGNDIQWCFSQVKGAVDDDVAEADIISTVEFNHSGELLATGDKGGRVVIFQQEQENKIQSHSRGEYNVYSTFQSHEPEFDYLKSLEIEEKINKIRWLPQKNAAQFLLSTNDKTIKLWKISERDKRPEGYNLKEEDGRYRDPTTVTTLRVPVFRPMDLMVEASPRRIFANAHTYHINSISINSDYETYLSADDLRINLWHLEITDRSFNIVDIKPANMEELTEVITAAEFHPNSCNTFVYSSSKGTIRLCDMRASALCDRHSKLFEEPEDPSNRSFFSEIISSISDVKFSHSGRYMMTRDYLSVKIWDLNMENRPVETYQVHEYLRSKLCSLYENDCIFDKFECCWNGSDSVVMTGSYNNFFRMFDRNTKRDITLEASRENNKPRTVLKPRKVCASGKRKKDEISVDSLDFNKKILHTAWHPKENIIAVATTNNLYIFQDKVN
B9: sp¦Q9GZY6¦NTAL_HUMAN (protein, UniProt Q9GZY6 1-243, looked up)
Linker for activation of …: MSSGTELLWPGAALLVLLGVAASLCVRCSRPGAKRSEKIYQQRSLREDQQSFTGSRTYSLVGQAWPGPLADMAPTRKDKLLQFYPSLEDPASSRYQNFSKGSRHGSEEAYIDPIAMEYYNWGRFSKPPEDDDANSYENVLICKQKTTETGAQQEGIGGLCRGDLSLSLALKTGPTSGLCPSASPEEDEESEDYQNSASIHQWRESRKVMGQLQREASPGPVGSPDEEDGEPDYVNGEVAATEA
B10: sp¦Q9Y383¦LC7L2_HUMAN (protein, UniProt Q9Y383 1-392, looked up)
Putative RNA-binding protein …: MSAQAQMRAMLDQLMGTSRDGDTTRQRIKFSDDRVCKSHLLNCCPHDVLSGTRMDLGECLKVHDLALRADYEIASKEQDFFFELDAMDHLQSFIADCDRRTEVAKKRLAETQEEISAEVAAKAERVHELNEEIGKLLAKVEQLGAEGNVEESQKVMDEVEKARAKKREAEEVYRNSMPASSFQQQKLRVCEVCSAYLGLHDNDRRLADHFGGKLHLGFIEIREKLEELKRVVAEKQEKRNQERLKRREEREREEREKLRRSRSHSKNPKRSRSREHRRHRSRSMSRERKRRTRSKSREKRHRHRSRSSSRSRSRSHQRSRHSSRDRSRERSKRRSSKERFRDQDLASCDRDRSSRDRSPRDRDRKDKKRSYESANGRSEDRRSSEEREAGEI

test system: human HL60 cells; test: SWATH-MS proteomics, differential protein representation, akirin2 KO vs WT HL60 cells; type: cell-based; conditions: SWATH-MS, akirin2 KO vs WT HL60 cells; sheet "Under-represented in KO"
Procedure, shortened: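 Three biological replicates per genotype; 150 µg protein FASP/trypsin digested; IDA library (3 µg digest); SWATH variable windows, 5 µg/sample, 3.6 s cycle; gradient 5–30% B 120 min then 30–60% B 15 min; 1% global FDR; TAS normalization.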

Point of comparison: B1, “Fold Change” value 0.7927. Against it:
- B2 — lower, 0.7911
- B3 — lower, 0.7911
- B4 — lower, 0.7916
- B5 — higher, 0.7929

Point of comparison: B2, “Log (Fold Change)” value -0.1018. Against it:
- B1 — within 0.2 log units, -0.1009
- B3 — within 0.2 log units, -0.1017
- B4 — within 0.2 log units, -0.1015
- B5 — within 0.2 log units, -0.1008

same assay, conditions: akirin2 KO vs WT HL60 cells; sheet "Under-represented in KO"

Point of comparison: B7, “Fold Change” value 0.3572. Against it:
- B6 — lower, 0.08984
- B8 — higher, 0.3625
- B9 — higher, 0.3739
- B10 — lower, 0.3527

Point of comparison: B8, “Log (Fold Change)” value -0.4407. Against it:
- B6 — lower, -1.047
- B7 — within 0.2 log units, -0.4471
- B9 — within 0.2 log units, -0.4273
- B10 — within 0.2 log units, -0.4526
